The values below come from US6538103B1, “Lysine binding fragments of angiostatin” (Bristol--Myers Squibb Company, priority 1998, dated 2003).

The test system of assay [1] is Bovine capillary endothelial (BCE) cells. The experiment in a line: Endothelial cell migration assay (Boyden chamber, bFGF-stimulated). It is filed as cell-based. As to conditions: bFGF 10 ng/ml, 4 hours migration; read-out: IC50 of inhibition of bFGF-induced BCE cell migration. As for the experimental part: Bovine capillary endothelial (BCE) cells were harvested from bovine adrenal glands as previously described (33). BCE cells were maintained in DMEM in the presence of 10% bovine calf serum, 1% antibiotics, and 3 ng/ml of bFGF (PeproTech, Rockhill, N.J.). To evaluate endothelial cell migration, a Boyden Chamber-based assay was performed. First, the polycarbonate membranes with […] (Neuro Probe Inc., Cabin John, Md.) were coated with […] of collagen type I following manufacturer's instructions (Becton Dickinson, Bedford, Mass.). […] Each sample was tested in quadruplicate and a representative field in each well was counted at 10 x magnification to determine the number of migrated cells.
Fifty micrograms of the recombinant angiostatin in […] of serum-free DMEM was reduced by incubating with […] of 0.5 M dithiothreitol for 15 minutes at the room temperature. […] The homogeneity of the reduced and alkylated angiostatin was analyzed by SDS-PAGE before being examined for its inhibition on BCE cell migration. The endotoxin concentrations of both native and reduced/alkylated angiostatin were evaluated according to manufacturer's instructions (Associates of Cape Cod, Woods Hole, Mass.). […]

Assay [2] relates to endothelial cell proliferation. Conditions: previously described / reported; cited from earlier work.

Regarding Angiostatin, the IC50 in assay [1] was around 50 nM.

B1: K4: recombinant plasminogen kringle region 4, expressed in Pichia pastoris (protein)
chain: VQDCYHGDGQSYRGTSSTTTTGKKCQSWSSMTPHRHQKTPENYPNAGLTMNYCRNPDADKGPWCFTTDPSVRWEYCNLKKCSGT
modifications: human
notes: recombinant plasminogen kringle region 4, expressed in Pichia pastoris
Consider B1, for which the IC50 in assay [1] was 500 nM. In assay [2], the “effect on endothelial cell proliferation (in words)” value was “negligible effect on endothelial cell proliferation”.
